The text below walks through data of patent publication US20220265842A1, “ANTI-CD40 ANTIBODY DRUG CONJUGATES” (priority 2017, published 2022).

Assay [1] deals with human CD40 Transcript 1 (Myc-DDK-tagged) on HEK293 GRE reporter cells (human, UniProt P25942 21-277). In words: cell-based or functional assay.
Assay [2] deals with human CD40 on LPS-stimulated human monocyte-derived dendritic cells (human, UniProt P25942 21-277). The assay is described as follows: cell-based or functional assay.
Chain of human CD40 on LPS-stimulated human monocyte-derived dendritic cells (P25942 21-277 limits assumed): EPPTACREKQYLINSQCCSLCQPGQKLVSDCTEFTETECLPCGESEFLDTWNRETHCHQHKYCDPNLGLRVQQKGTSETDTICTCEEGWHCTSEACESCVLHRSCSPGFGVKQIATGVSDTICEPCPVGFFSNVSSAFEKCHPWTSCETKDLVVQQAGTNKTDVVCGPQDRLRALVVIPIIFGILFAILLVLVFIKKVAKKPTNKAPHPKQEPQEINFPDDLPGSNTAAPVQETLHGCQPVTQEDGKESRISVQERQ

Chain of human CD40 Transcript 1 (Myc-DDK-tagged) on HEK293 GRE reporter cells (P25942 21-277): as the sequence (P25942 21-277 limits assumed) above

B1: Example 12-hydrolyzed (human), n=4 (antibody, human IgG1, kappa, L234A L235A, V domains shown)
VH: EVQLVESGGGLVKPGGSLRLSCAASGFTFSDYGMNWVRQAPGKGLEWIAYISSGRGNIYYADTVKGRFTISRDNAKNSLYLQMNSLRAEDTAVYYCARSWGYFDVWGQGTTVTVSS
VL: DIVMTQSPDSLAVSLGERATINCKSSQSLLNRGNQKNYLTWFQQKPGQPPKLLIYWASTRESGVPDRFSGSGSGTDFTLTISSLQAEDVAVYYCQNDYTYPLTFGQGTKLEIKR
modifications: glucocorticoid drug-linker of Precursor Example 12 (maleimide, thiosuccinimide ring hydrolyzed) on cysteine thiols of reduced disulfides; n=4 per antibody; positions not given
Take B1: in assay [1], the “hCD40 GRE (% max)” value came out at 163% and the “hCD40 GRE EC50” value stood at 0.19 µg/mL. In assay [2], the “IL-6 release IC50” value is 0.04 µg/mL and the “Max Inhibition (%)” value is 99.5%.

B2: Example 4-conjugated (human), n=4 (antibody, human IgG1, kappa, L234A L235A, DAR 4, V domains shown)
VH: EVQLVESGGGLVKPGGSLRLSCAASGFTFSDYGMNWVRQAPGKGLEWIAYISSGRGNIYYADTVKGRFTISRDNAKNSLYLQMNSLRAEDTAVYYCARSWGYFDVWGQGTTVTVSS
VL: DIVMTQSPDSLAVSLGERATINCKSSQSLLNRGNQKNYLTWFQQKPGQPPKLLIYWASTRESGVPDRFSGSGSGTDFTLTISSLQAEDVAVYYCQNDYTYPLTFGQGTKLEIKR
modifications: glucocorticoid drug-linker of Precursor Example 4 (bromoacetamide) on cysteine thiols of reduced interchain disulfides; n=4 per antibody; positions not given
Take B2: in assay [1], the “hCD40 GRE (% max)” value worked out at 88% and the “hCD40 GRE EC50” value came out at 6.57 µg/mL.

B3: Example 13-hydrolyzed (human), n=4 (antibody, human IgG1, kappa, L234A L235A, V domains shown)
VH: EVQLVESGGGLVKPGGSLRLSCAASGFTFSDYGMNWVRQAPGKGLEWIAYISSGRGNIYYADTVKGRFTISRDNAKNSLYLQMNSLRAEDTAVYYCARSWGYFDVWGQGTTVTVSS
VL: DIVMTQSPDSLAVSLGERATINCKSSQSLLNRGNQKNYLTWFQQKPGQPPKLLIYWASTRESGVPDRFSGSGSGTDFTLTISSLQAEDVAVYYCQNDYTYPLTFGQGTKLEIKR
modifications: glucocorticoid drug-linker of Precursor Example 13 (maleimide, thiosuccinimide ring hydrolyzed) on cysteine thiols of reduced disulfides; n=4 per antibody; positions not given
With B3, in assay [1], the “hCD40 GRE (% max)” value turned out to be 67% and the “hCD40 GRE EC50” value came to 0.29 µg/mL. Besides, in assay [2], the “IL-6 release IC50” value stood at 0.14 µg/mL and the “Max Inhibition (%)” value came to 83.3%.

B4: Example 28-conjugated (human), n=4 (antibody, human IgG1, kappa, L234A L235A, DAR 4, V domains shown)
VH: EVQLVESGGGLVKPGGSLRLSCAASGFTFSDYGMNWVRQAPGKGLEWIAYISSGRGNIYYADTVKGRFTISRDNAKNSLYLQMNSLRAEDTAVYYCARSWGYFDVWGQGTTVTVSS
VL: DIVMTQSPDSLAVSLGERATINCKSSQSLLNRGNQKNYLTWFQQKPGQPPKLLIYWASTRESGVPDRFSGSGSGTDFTLTISSLQAEDVAVYYCQNDYTYPLTFGQGTKLEIKR
modifications: glucocorticoid drug-linker of Precursor Example 28 (bromoacetamide) on cysteine thiols of reduced interchain disulfides; n=4 per antibody; positions not given
With B4, in assay [1], the “hCD40 GRE (% max)” value amounted to 77% and the “hCD40 GRE EC50” value was 0.53 µg/mL. In addition, in assay [2], the “IL-6 release IC50” value turned out to be 0.05 µg/mL and the “Max Inhibition (%)” value worked out at 87.6%.

B5: Example 28-conjugated (human), n=2 (antibody, human IgG1, kappa, L234A L235A, DAR 2, V domains shown)
VH: EVQLVESGGGLVKPGGSLRLSCAASGFTFSDYGMNWVRQAPGKGLEWIAYISSGRGNIYYADTVKGRFTISRDNAKNSLYLQMNSLRAEDTAVYYCARSWGYFDVWGQGTTVTVSS
VL: DIVMTQSPDSLAVSLGERATINCKSSQSLLNRGNQKNYLTWFQQKPGQPPKLLIYWASTRESGVPDRFSGSGSGTDFTLTISSLQAEDVAVYYCQNDYTYPLTFGQGTKLEIKR
modifications: glucocorticoid drug-linker of Precursor Example 28 (bromoacetamide) on cysteine thiols of reduced interchain disulfides; n=2 per antibody; positions not given
As to B5, in assay [1], the “hCD40 GRE (% max)” value came to 90% and the “hCD40 GRE EC50” value was 16.5 µg/mL. For the same molecule, in assay [2], the “IL-6 release IC50” value came out at 0.03 µg/mL and the “Max Inhibition (%)” value was 81.8%.

B6: Human anti-CD40 antibody Ab102 (antibody, human IgG1, kappa, L234A L235A, V domains shown)
VH: EVQLVESGGGLVKPGGSLRLSCAASGFTFSDYGMNWVRQAPGKGLEWIAYISSGRGNIYYADTVKGRFTISRDNAKNSLYLQMNSLRAEDTAVYYCARSWGYFDVWGQGTTVTVSS
VL: DIVMTQSPDSLAVSLGERATINCKSSQSLLNRGNQKNYLTWFQQKPGQPPKLLIYWASTRESGVPDRFSGSGSGTDFTLTISSLQAEDVAVYYCQNDYTYPLTFGQGTKLEIKR
B6: in assay [2], the “IL-6 release IC50” value came out at 0.18 µg/mL and the “Max Inhibition (%)” value stood at 44.5%.
